Results published in article PMC3226476.
Read-outs that look alike come from different tables or passages of the source.

How the values were obtained:
Experiment in all cases: co-sedimentation
[1] = target: Taxol-stabilized microtubules (polymerized porcine brain tubulin) (porcine (purified from brain)) (UniProt P02550)
[2] = target: Taxol-stabilized microtubules (polymerized porcine brain tubulin) (porcine (purified from brain)) (UniProt P02550); remark: listed apart in the source
[3] = target: mDia2-FH1FH2C (mouse, 521-1171) (mouse) (UniProt Q9Z207)
[4] = target: mDia1-FH1FH2C (mouse, amino acids 548-1255) (mouse) (UniProt O08808)
[5] = target: INF2-FH1FH2 (human, 469-941) (human) (UniProt Q27J81)

| Substance | Kd [1] | stoichiometry N (tubulin dimer:formin dimer) [1] | other results |
| --- | --- | --- | --- |
| GST-INF2-Cterm (human CAAX variant, 941-1249) (from UniProt Q27J81 941-1249) (domain or fragment) | > 20 µM |  |  |
| GST-mDia1-Cterm (1149-1255) (from UniProt O08808 1149-1255) (domain or fragment) | > 20 µM |  |  |
| GST-mDia2-Cterm (1009-1171) (from UniProt Q9Z207 1009-1171) (domain or fragment) | 710 µM | 0.6 | Kd [2]: 0.71 µM |
| LatB-stabilized actin monomers (rabbit skeletal muscle actin) (from UniProt P68135 1-377) (natural protein) |  |  | percent of the actin in the pellet [3]: 10%; percent of the actin in the pellet [4]: 10%; percent of the actin in the pellet [5]: 10% |
| mDia1-FH1FH2C (mouse, amino acids 548-1255) (from UniProt O08808 548-1255) (domain or fragment) |  | 3.09 |  |
